Data from a protein production outcome set (Wang et al. 2014).

Assay: label from the status in PepcDB records

Row | Sequence | protein production
1 | MTTPVNGSVIPLISLRESRMPSLTDGAIRRALKQVEQTQKPVTLADGEGRGIGRLILFVRPMPTRVIAYWLVQQWRAGARSRKKIGAYPSMSLNQARNIFDRDFADAIQKGRSIKALGDTRAGTLGDLFDAYIAHLKSSGKKSWKEAEKGLNKVADTLGRHRPARDIEPHEIVDIIRPIYGRGTRSMADHVRGYLRAAFSWGIKSEHDYRHASPRRFGLTKNPAAGIPSEPYVPGNRWLDEEEFLRLYRWLECPDTPVHPPYTRAVRLLMLTGQRVEEIARLHIAQWDAKERIIDWSTTKNGKPHAIPVPDLAAELLESIKPNNYGWFFPSAFDPSKPVAHNTLYSFMWRQRERGVIPVVTNRDLRRTWKTLAGKAGLSKEIRDRLQNHTLQDVSSKAYDRWNYMPEKRAAMKQWNSFVRSVLTPDRLTSAA | failed
2 | MEAIRVFGPKLGSRLSIRSHTTAFPACKLSRFPLTSFPGKHAHLVLLKATTIPLASGDKENNRKFEKLGPSEWGNQFLFAHVDLSEMDALEREIEALKPKVRDMFMSFKGMKSNKKNLFLIYLLVSLGLAHHFEDEIEESVKGCSQEMVEMMDGENDLYTVSIIFWVFRTYGHNISSDIFNRFKGHNGKFKECLATDAKGILSLYEAAHMGTTTDYILDEALSFTLSYLESLAANGTCKPNLVRRIRNALGLLQNKNVEILVAKEYIRFYEQEEDCDKTILEFSMLNLKFLQLHYLQELKLLTKWYKEQDFESKLPPYYRDRIVELHLATLAYINPKYSRVRIILTMIYTIQIILDDTCDRYASLREVESLAATIERWDHNDHAMEGLPDYLKSVAKFIFHTFQEFEREVSSESGGSYSLKATIEDCKRMMRSNLQLAKWAVTGHLPSFDEYLDVAGVEIAVYFTVAGILLGMENINKKEAYEWLIFRDKLVRAMSTKARLVNDLFGYKDDMRRGYVTNSINCYKKQYGVTEEEAFRKLHQMVADGDKMMNEEFLKPINVPHQVLKAVLDTLRAINICYDNEDGFTRLNGNLKNYITSMYVDL | failed
3 | MQKPHLLITSAGRRAKLVEYFVKEFKTGRVSTADCSPLASALYMADQHYIVPKIDEVEYIDHLLTLCQDEGVTALLTLIDPELGLLAQATERFQAIGVTVIVSPYAACELCFDKYTMYEYCLRQGIAHARTYATMASFEEALAAGEVQLPVFVKPRNGSASIEVRRVETVEEVEQLFSKNTDLIVQELLVGQELGVDAYVDLISGKVTSIFIKEKLTMRAGETDKSRSVLRDDVFELVEHVLDGSGLVGPLDFDLFDVAGTLYLSEINPRFGGGYPHAYECGVNFPAQLYRNLMHEINVPQIGQYLDDIYMLKHDTVTLISAAELQKIKR | not failed
4 | MSDQKNRRNALIGAAFLMATSAIGPGFLTQTATFTQALAASFGFVILLSILLDIGAQLNIWRIVAVSEKQAQDIANQVLPGAGYFLAVLIVMGGLAFNIGNVGGAGLGLNLLTGLSPETGAVISGVIAIGVFLFKEAGKVMDKFAQVMGFVMIALTVYVAWQANPPLADAAVHTFMPEKLDAMAIVTLVGGTVGGYITFAGAHRLLDAGIKGKSALPEVSQSSVRAILIASIMRIVLFLAVLGVVSQGVQLNPDNPASTPFEYAAGYIGLLIFGVVIWAASITSVIGAAYTSVSFFSGLSPSIERNKNKWIIAFIAVSTAVFSTIGKPAQVLVFVGALNGLILPISLGLILIAAYKTKIVGDYKHPLWLTVSGVIVVGLMAVLSAITISKYIGGLFG | failed
5 | MPLVTRNIEPRHLCRQTLPSVRSELECVTNITLANVIRQLGSLSKYAEDIFGELFTQANTFASRVSSLAERVDRLQVKVTQLDPKEEEVSLQGINTRKAFRSSTIQDQKLFDRNSLPVPVLETYNTCDTPPPLNNLTPYRDDGKEALKFYTDPSYFFDLWKEKMLQDTKDIMKEKRKHRKEKKDNPNRGNVNPRKIKTRKEEWEKMKMGQEFVESKEKLGTSGYPPTLVYQNGSIGCVENVDASSYPPPPQSDSASSPSPSFSEDNLPPPPAEFSYPVDNQRGSGLAGPKRSSVVSPSHPPPAPPLGSPPGPKPGFAPPPAPPPPPPPMIGIPPPPPPVGFGSPGTPPPPSPPSFPPHPDFAAPPPPPPPPAADYPTLPPPPLSQPTGGAPPPPPPPPPPGPPPPPFTGADGQPAIPPPLSDTTKPKSSLPAVSDARSDLLSAIRQGFQLRRVEEQREQEKRDVVGNDVATILSRRIAVEYSDSEDDSSEFDEDDWSD | not failed
6 | MLKEIKRRNRMKNKRLIGIIAALAVLVAGSLIYSSMNKSEAQNNKDEKKITKIGVLQFVSHPSLDLIYKGIQDGLAEEGYKDDQVKIDFMNSEGDQSKVATMSKQLVANGNDLVVGIATPAAQGLASATKDLPVIMAAITDPIGANLVKDLKKPGGNVTGVSDHNPAQQQVELIKALTPNVKTIGALYSSSEDNSKTQVEEFKAYAEKAGLTVETFAVPSTNEIASTVTVMTSKVDAIWVPIDNTIASGFPTVVSSNQSSKKPIYPSATAMVEVGGLASVVIDQHDLGVATGKMIVQVLKGAKPADTPVNVFSTGKSVINKKIAQELGITIPESVLKEAGQVIE | not failed
7 | MIIKNKMVKRLISTFLMSLLLASMMLVIGAGNVYAQGSVSSTSLQVSADGSDYYIIGSDFYNHFVRPTTVDLAKNKVVYNKQILTVYNGRIDKWKMSFLNQDSSGKSWFKFLSYPEATKGDIKITYTTDGINYSDSKPSLEQLKGYMVELLKPIVYPDDANNQENDIEVSFQLSPDTDYILSNSNLNKQFIPFSGENWLQNYSPYPFFTDRNQLQFVYPDYSKGVMVKYVDEEGNEIHDPQTISGSKGDVYDASTDQYKLVLDGYTLDTSKLPQNSIGNFKEALQTVTYVFSKNPVLAADVTVRYVDKENNPISEDIILQGNIGENYYTDKKILKIIL | failed
8 | MLCRKNSSLVDRGNVPVYLNVYDLTPINGYAYWLGLGVYHSGVEVHGIEYAYGAHEYPSTGIFEGEPKQCEGFTFRKSILIGKTDLGPLEVRATMEQLADNYKGSSYNLITKNCNHFCDETCIKLTGNPIPSWVNRLARIGKFSGFMCNCVLPATINATRFGNNRVNQDKSCEAENEKKKLTSVSSRERSTIATPSSSSSSPSVQVRGRSRKRRPRALQPSSPLTLGSSSV | failed
9 | MIKVLDQNTINKIAAGEVIEKPSSVIKELVENSIDSGATAITVEVKGSGLSFLRVTDNGSGIKKDEVKLAFLRHATSKLVTVEDLLSISSLGFRGEALASIASVAQVEMITKTADDVTGLRYQIHGGREISSEEIGAPGGTTIIVRNLFYNTPARKKFMKTDLTEISYIYDLMCRICMSHPKISFKFISNGTDKLFTSGNGKLRDIIYHIYGRDITSNLLEINAENDYMKISGYIARPCISRGNRSFEGYYVNHRYIKSAVLTKAIEDAFRTFVMIHKFPFTEINFQVRPDLLDVNVHPTKMELKFANSQDIYSFTYNAIRETLLFKELIPDVAPGKDSKPETYKQRNVGDAPEAFENKRREALVGPVAQAKAAPTHMVTDNSLVKSENAPVLDQRQMKPERASTSESQARPEGTSTALQQPLKPDNIPAPVRPIIDVIDETKDTNTSAEKKSDNNTYEQPQKSGYSYSGRHQEIPGSKVAESKASYMAVDDRKYVQQNMFQEKFLTKEARAKHRLIGQLFKTYWLIEYDGKFFIMDQHAAHEKVKYEELMENYKNKKIYSQYLMPPAVVTLSATEIEFLHENMETFEALGYQIENFGGREFKLNAVPDNLFGLDGRELFIDFIADASSSAKKVTIDVFIHKLSTMACKAAIKGNTEISFKEADALIDQLLKLENPYTCPHGRPTVISMTEAEIEKKFKRIV | failed
10 | MLDVRARAALSGPLDRAAAMLDRPAVTPNRLTALGLLTGLASAGSAAAGWWPAAAALWLLSRLADGLDGPLARRRGTANSSGAGGFLDISADFLVYGAFVVGVAVGVGGPALPFLLVLLTYYVNGTAFLAFSSIAERTGRRGDGRLSGGRSLNFLGGLAEGGETIAVHTLWCLLPGFAHTIAWVWAAVVAVTAAHRVVTGYRQLR | failed
11 | MFTALLFTLGIAAATSFNASAIDNHNNKNKLPDIGISGYSVLSTDKELQIGKAMMRQLRASQPLIQDPVLIEYINHLGNSLVKNAQGVNYAFEFFLINNNELNAFAFFGGHVGIHSGLITTADTESELASVIAHEISHVTQRHLARRLESQSQTQGLTMAAMLSSVLITLVNPTVGIAALSASMAVTQQASINYTRGNEKEADRVGIALLASSNYDPQGAASFFSKMSTKYRYASKPPAMLLTHPLPESRIADARQRALNYPARPLPPSLGFELTKARLKSRYQGEAKSNISFFKLQLEKKRYAIKAAAQYGLALSYFENKQTSEALQLLEMLEKNDKDNLFYVDALTDVYIANNQANKAIKMLERLNLFMPNNQVVSLNYANALLSVKEYDLAAQILQDFLLVNPGNFIAYDILTTLYRTQEKTGLMHMSKAEVYALLGAYPKAVDELQTSYAFLDEQPLMQKRVKARILQLQEQENRLKRL | failed
12 | MDCSESCHLKEPSKDRAFTHKPVVDEFKKSVHGAGHAPGATKDFHGGNRLEEETGQQNPSCRRCHSNTPYIKDANLERFKQELHHTETECGTCHQGETWRNQFSGHILRRLVGKNYDKMEANAMCVDCHGDHEAMAKVEIQDPETRERKKASFRFAHATDSYAKTLHGRLLAVNDESGASCIDCHAPDGFRHGILRDESKDSPTHPDRLGETCSQAGCHGYAKSPLNLGFLNTDLHDLDFLRMEDLSFALDFSRLDSAWYAAAWVLGPLGLIFLTSSLLSPLSRSRRAPVTEVVGYDHFQRVMIGGGSAKDGLWRRIRGRLVGGTPAVPVPAPLVEPGAPITSLTILFGSQTGNGEGVAADLEARLKAWGYSVELADMADYDPREIVNERLLFVIVSTHGEGQPPLPAEKLHGYLYAETAPRLEHLKFAVFALGDSSYKHFCKAGKDFDAFLQRLGASRVLDRVDADADFEEAAAAWIDAVLGCCRAIIGDTGIERPLEAEPVDHAVAKSGYGKTHPYPAAVLRNVNLNGEGSAKETRHIEIDLGDSGLSYEPGDALGVYPKNDPAYVEALLAALQADGYSEVTLGKETLSLREAFYKHLDITGLSRVLVEKYAELCDSRVLAGLLADPDPARLEGYLWGRQIIDLVEDFPIQGISPQTFVNVLRRLPPRLYSIASSMKAHPGQVHLTVGAVRYHAHGRNREGVCSTYLAGRIGPGERLAIFVQPNKHFRLPEDPETPLIMVGPGTGIAPFRGFVEEREVTGARGRNWLYFGDQRRATDYLYREEWEDKLRRGVLTRLDLAFSRDQERKVYVQTRMLENAREMYAWLEEGACFYVCGDASRMAQDVHRALLAIVMQEGGRTQEQAEEYLEAMAASRRYLRDVY | failed
13 | DRTAILGGTFTPIHNGHRALLHKAFQTASHDGSGDGHVIVGLTSPELATETRSDPTHVKQLGAYDDRRSALASELDQLGEPYTATYEIVRLDDTQGPAATRADVDALVASPEAKAQRRAYELNQQRRESGLHPLEIHTPPFVVAEDGTRISSTRIRNGEIDVHGRLLD | failed
14 | DDDIEQLLEFMHQLPAFANMTMSVRRELCSVMIFEVVEQAGAIILEDGQELDSWYVILNGTVEISHPDGKVENLFMGNSFGITPTLDKQYMHGIVRTKVDDCQFVCIAQQDYWRILNHVEK | not failed
15 | MQAETNSAPLAAALYMIAAMSIIGVIDNYVIRLAESIGLWQFHFMRSLMMLPLVGLMSLMGLGGLFPRRKGWVLLRSLLLTVAMLFYFSALAFMPIAQALAGLFTSPIFVLLVTAFGLRQRIGPWRILAVLMGFAGILFVLQPDPGAFDATVLIPVAGGFFYALGAVVTRRHCAGESTAALLGAMVTALGLTGLGGLIWLALFPATPLPGPDGFVARGWVWPMAEAMPWVALQAVGSATAVFMLIRAYQLGEPSYVSVFEFSVMIFGPLFAWVVLGVGLGPWQMLGIGLIVLAGAIIALRSG | failed
16 | MQPIELAELLTSQAAVLTSLVVIGLILCFIGYKIFRVYSAVIGLFIGQLVGIYITINYYENALIVILASAIVGALLFALIDELGLIVTGAAFGYFVGVYLLPEYQVYAFVLAALFALINLFIEKPLTVLITSVIGASAIALAVHMGITGTHIYDILNDPKKVFDAIFSNAYFDLLWFTLVLTGIITQYVTYKEEREEEE | failed
17 | SGGTLRIYADSLKPNIPYKTILLSTTDTADFAVAESLEKYGLEKENPKDYCIARVMLPPGAQHSDERGAKEIILDDDECPLQIFREWPSDKGILVFQLKRRPP | not failed
18 | MAVRIVDDLQQLSLLLMFLSTFIFYRYLKKVKRERKLTGFEWTMYFVTQFATLIWAITYFIKHLAES | failed
